The record followed here is PMC3626704 (BMC Biochemistry, 2013).

Experiment [1] addresses T1, 6-Helix-Fd (HIV-1 gp41 (HXB2-like, printed sequence), stabilised).
T1 construct: also called post-fusion six-helix bundle mimic
T1 chain: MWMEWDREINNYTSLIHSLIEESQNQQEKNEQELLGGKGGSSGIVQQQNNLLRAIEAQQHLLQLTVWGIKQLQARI
Briefly: ELISA. The settings on record: both partners purified.

The target of experiment [2] is T2, 5-Helix (HIV-1 group M subtype B, HXB2 (gp41 …, stabilised)).
T2 construct: also called designed protein based on HIV-1 gp41
Nature of the experiment: ELISA. The settings on record: both partners purified.

In experiment [3] the target is T1, 6-Helix-Fd. Briefly: ELISA; competitive phage ELISA, on-phage bivalent scFv: binding to immobilised 5-Helix inhibited by free 5-Helix or free 6-Helix-Fd (concentrations for the trimer); apparent. The settings on record: one partner purified.
The target of experiment [4] is T2, 5-Helix. The description is as above. The settings on record: one partner purified.
In experiment [5] the target is T2, 5-Helix. Nature of the experiment: ELISA. The settings on record: one partner purified.

B1: D5 scFv, purified monovalent (scFv, V domains shown)
VH: QVQLVQSGAEVRKPGASVKVSCKASGDTFSSYAISWVRQAPGQGLEWMGGIIPIFGTANYAQAFQGRVTITANESTSTAYMELSSLRSEDTAIYYCARDNPTLLGSDYWGAGTLVTVSS
VL: DIQMTQSPSTLSASIGDRVTITCRASEGIYHWLAWYQQKPGKAPKLLIYKASSLASGAPSRFSGSGSGTDFTLTISSLQPDDFATYYCQQYSNYPLTFGGGTKLEIK
As to B1, the figures for the IC50 in experiment [1] and in experiment [2] were 290 nM and 7.3 nM, respectively.

B2: 25F10 bivalent scFv on phage (scFv, V domains shown)
VH: QVQLVQSGAEVRKPGASVKVSCKASGDTFSSYAISWVRQAPGQGLEWMGGIIPIFGTANYAQAFQGRVTITANESTSTAYMELSSLRSEDTAIYYCARDNPTLLGSDYWGAGTLVTVSS
VL: DIQMTQSPSTLSASIGDRVTITCRASEGIHNRLAWYQQKPGKAPKLLISHASNLASGAPSRFSGSGSGTDFTLTISSLQPDDFATYYCQQYSNYPLTFGGGTKLEIK
Turning to B2, the IC50 in experiment [3] turned out to be 22 nM; in experiment [4], 0.2 nM. Further, the “F_competitive (signal with 40 nM free 5-Helix / signal without)” value in experiment [5] came to 0.1 fraction. For the same molecule, in experiment [5], the “phage ELISA signal OD450” value turned out to be 1.7 OD450.

B3: 25C10 scFv, purified monovalent (scFv, V domains shown)
VH: QVQLVQSGAEVRKPGASVKVSCKASGDTFSSYAISWVRQAPGQGLEWMGGIIPIFGTANYAQAFQGRVTITANESTSTAYMELSSLRSEDTAIYYCARDNPTLLGSDYWGAGTLVTVSS
VL: DIQMTQSPSTLSASIGDRVTITCRASENIYGNLAWYQQKPGKAPKLLISRASRLASGAPSRFSGSGSGTDFTLTISSLQPDDFATYYCQQRYTYPLTFGGGTKLEIK
With B3, in experiment [2], the IC50 was determined as 56 nM.

B4: 25B6 bivalent scFv on phage (scFv, V domains shown)
VH: QVQLVQSGAEVRKPGASVKVSCKASGDTFSSYAISWVRQAPGQGLEWMGGIIPIFGTANYAQAFQGRVTITANESTSTAYMELSSLRSEDTAIYYCARDNPTLLGSDYWGAGTLVTVSS
VL: DIQMTQSPSTLSASIGDRVTITCRASENIRSGLAWYQQKPGKAPKLLIYRASRLASGAPSRFSGSGSGTDFTLTISSLQPDDFATYYCQQYDDYPHTFGGGTKLEIK
For the molecule B4, the figures for the half-inhibitory concentration (IC50) in experiment [3] and in experiment [4] were 23 nM and 0.3 nM, respectively. In experiment [5], the “F_competitive (signal with 40 nM free 5-Helix / signal without)” value worked out at 0.1 fraction. Moreover, the “phage ELISA signal OD450” value in experiment [5] was 1.4 OD450.

B5: 25B6 scFv, purified monovalent (scFv, V domains shown)
VH: QVQLVQSGAEVRKPGASVKVSCKASGDTFSSYAISWVRQAPGQGLEWMGGIIPIFGTANYAQAFQGRVTITANESTSTAYMELSSLRSEDTAIYYCARDNPTLLGSDYWGAGTLVTVSS
VL: DIQMTQSPSTLSASIGDRVTITCRASENIRSGLAWYQQKPGKAPKLLIYRASRLASGAPSRFSGSGSGTDFTLTISSLQPDDFATYYCQQYDDYPHTFGGGTKLEIK
For the molecule B5, the IC50 in experiment [1] turned out to be 94 nM; in experiment [2], 0.6 nM.

B6: 25A12 bivalent scFv on phage (scFv, V domains shown)
VH: QVQLVQSGAEVRKPGASVKVSCKASGDTFSSYAISWVRQAPGQGLEWMGGIIPIFGTANYAQAFQGRVTITANESTSTAYMELSSLRSEDTAIYYCARDNPTLLGSDYWGAGTLVTVSS
VL: DIQMTQSPSTLSASIGDRVTITCRASEGIHRYLAWYQQKPGKAPKLLIYHASRLASGAPSRFSGSGSGTDFTLTISSLQPDDFATYYCQQRANYPYTFGGGTKLEIK
For the molecule B6, the IC50 in experiment [3] came out at 220 nM. In experiment [4], the IC50 worked out at 2.2 nM. For the same molecule, in experiment [5], the “F_competitive (signal with 40 nM free 5-Helix / signal without)” value came out at 0.1 fraction and the “phage ELISA signal OD450” value was 3.2 OD450.

B7: 25A10 scFv, purified monovalent (scFv, V domains shown)
VH: QVQLVQSGAEVRKPGASVKVSCKASGDTFSSYAISWVRQAPGQGLEWMGGIIPIFGTANYAQAFQGRVTITANESTSTAYMELSSLRSEDTAIYYCARDNPTLLGSDYWGAGTLVTVSS
VL: DIQMTQSPSTLSASIGDRVTITCRASESISHNLAWYQQKPGKAPKLLISNASRLASGAPSRFSGSGSGTDFTLTISSLQPDDFATYYCQQYSNYPLTFGGGTKLEIK
As for B7, the IC50 in experiment [1] was ~500 nM; in experiment [2] it was 5.4 nM.

B8: 25A12 scFv, purified monovalent (scFv, V domains shown)
VH: QVQLVQSGAEVRKPGASVKVSCKASGDTFSSYAISWVRQAPGQGLEWMGGIIPIFGTANYAQAFQGRVTITANESTSTAYMELSSLRSEDTAIYYCARDNPTLLGSDYWGAGTLVTVSS
VL: DIQMTQSPSTLSASIGDRVTITCRASEGIHRYLAWYQQKPGKAPKLLIYHASRLASGAPSRFSGSGSGTDFTLTISSLQPDDFATYYCQQRANYPYTFGGGTKLEIK
Turning to B8, the values for the half-maximal inhibitory concentration (IC50) in experiment [1] and in experiment [2] were 280 nM and 34 nM, respectively.
